Measurements as given in the RNAGym collection of RNA variant scans (doi:10.1073/pnas.2313332121).

B1: TPR t1 (parent)
chain: GACCAAUCUGCCCUCAGAGCUCGAGAACAUCUUCGGAUGCAGAGGAGGCAGGCUUCGGUGGCGCGAUAGCGCCAACGUCCUCAACCUCCAAUGCAUCCCACCACAUGAUGAUGCCUGAAGAGCCUUGGUUUUUUG

Variants of: B1
Assay: polymerase ribozyme fitness, log enrichment relative to wild type (log ratio); higher = more active; in vitro selection for triplet polymerase activity
Method in brief: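 The heterodimeric triplet polymerase ribozyme's subunits were each mutagenized into PCR-built libraries and transcribed. Every library was selected once, in triplicate, by annealing with a biotinylated primer, the partner subunit and triplets, incubating frozen at −7 °C, gel-excising extended constructs, capturing on streptavidin beads and running RT-PCR. Input and output libraries were Illumina-sequenced, with genotypes kept only at ≥10 input reads and ≥1 read per output. Fitness, from inverse-variance-weighted replicate averages, is the base-2 logarithm of genotype enrichment over wild-type enrichment.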

Row | Variant | polymerase ribozyme fitness (log ratio)
1 | G44A G61U C88G | -2.64
2 | C101U G107C | -6.63
3 | G60A C101G | -1.57
4 | G45C C99U | -4.05
5 | G36U A46U C72G C82A U87C U130G | -3.54
6 | C13A G77U U106A C114A | -4.55
7 | C56U C62G | -5.27
8 | A5G A6U A46G C123A | 0.996
9 | A41U C82U G113C | -2.61
10 | C73G G113C | -2.85
11 | C15U C53A A83C | -1.46
12 | C11U G113C | -2.55
13 | A84G C85U | 0.384
14 | U9G C11G C94U | -4.64
15 | A26G C73A A74U U78A | -2.49
16 | A41G A43G | -1.45
17 | A6U U9C U55C A75G A95C G110A | -1.37
18 | G42U G69A | -5.35
19 | C13G A83C C94G A119U C123G G127C G135U | -3.17
20 | G71C U133A | -0.636
21 | A50C G71U C101G | -2.67
22 | A27U G107A A121U G128U G135C | -3.88
23 | G10A G36C A50G U92G | -3.51
24 | C22A G120U U131A | -4.18

Row | Variant | polymerase ribozyme fitness (log ratio)
25 | A6G C11G G57U | 0.178
26 | C89A A111U G113A | -5.69
27 | G61A U116A | -2.68
28 | C13U A27U C72A U130A | -2.6
29 | U9G C28U C56A C114U A118U U125G U132A | -5.4
30 | C13U A27U C49A U130C U132C | -2.53
31 | G17A C70U | -3.03
32 | G61U A100C U106A U112A | 1.26
33 | U9A G36U G120U | 1.67
34 | U55G G61U C123A | 1.22
35 | G25C G61U | -3.53
36 | C34A G61C A91C A121U U134C | -5.66
37 | C4U G71A G77U | -1.79
38 | C80U C114G | -3.48
39 | G36U C123U | 0.205
40 | C4G C8G C11A U14G G69C C124U | -2.77
41 | G19U C73A C80U U112C C114A U126A | -1.24
42 | G52U C56G C89U | -1.53
43 | C53A G63A U78C | -2.46
44 | G51A C82U C124U | 0.555
45 | G60U G120A | 1.38
46 | C73G A111U | -4.08
47 | C82G G127A | -2
48 | G19C C40A C85U U112A | -2.1

Row | Variant | polymerase ribozyme fitness (log ratio)
49 | C15G C40A U92C | -4.63
50 | G51A G93U | -4.23
51 | C13G G52U | -3.2
52 | C70A U78C C102U | -4.3
53 | U30C C62U U78A U106C A121U | -3.04
54 | C8G A108G | -0.714
55 | U9A C34A G51A C70U A121C | -6.25
56 | C15A C62A C76U U96G C115U | -6.47
57 | A46C G58A C62U | -1.93
58 | C13A A26U A46U U81G C114U | -6.71
59 | C8A C124A | 2.16
60 | A6C G35A | -4.12
61 | C3U C53A C56A G69U | -0.204
62 | C53A G61C U116C | -5.85
63 | C70U C102U U132A | -2.52
64 | C11U G42C A75G U112C A121U G127A | -0.694
65 | C3U C13G A90U | -1.11
66 | C8A C49U C73U U130A | -0.88
67 | G69U U129G | -1.02
68 | G17C U133G G135U | -3.94
69 | U55G C62A C88G | -2.24
70 | C40U G60C C82U A90G A95U C97A C123G | -7.02
71 | C11A G45A G61A | -1.68
72 | C73G C124A U130G | 1.1

Row | Variant | polymerase ribozyme fitness (log ratio)
73 | G48A A50U U78A A119G G120C | 0.486
74 | G10C C70U A108U U112A U132C | -6.08
75 | C31G U109G C114G | -6.93
76 | C11A C72G | -1.14
77 | C64U A111C | 0.336
78 | G44C A91G | -1.82
79 | C3A C13G C89U G128C | -3.62
80 | G36U C56A | -1.83
81 | C64A C82G A121C | -7.17
82 | C56A C70U | -0.609
83 | G77U C82U | -0.811
84 | C72U C79A U106C | -1.81
85 | A26G G45C G48U C88U | -5.02
86 | A50G C62A C99U | -6.11
87 | G44A C86A C89U C115G C123A | -2.79
88 | U32G C49A G63C G117A | -6.8
89 | G19U C53G | -2.76
90 | A27C A41C U106C | -5.25
91 | A41U U130C | -1.35
92 | A66U U78C C124U | 0.592
93 | G69U C72U G117A | -0.708
94 | U7G G36U U96C C104U | -3.09
95 | C73U C124G | 0.939
96 | G61U C89A | -1.5

Row | Variant | polymerase ribozyme fitness (log ratio)
97 | G36C C56G C72U | -2.79
98 | C56U G113A | -0.858
99 | A50C U87G G120C U131A | 0.982
100 | A16U C56U U87A A103U U112A | -4.76
101 | G45U G69A U78A G127C | -4.73
102 | C3A G42A G57C G107U C114U G128U U130C | -4.37
103 | A26U C70U U78C | -4.92
104 | G36U U96A | -2.69
105 | C13A C85U A100C | -3.76
106 | C15A G47U G127C | -5.43
107 | G47A G113U | -2.8
108 | G61U | 0.14
109 | C8G G47U G57A C73A C85G U106A U133A | -4.51
110 | A74C C79A U125A | -1.75
111 | C11A A18U G127A | -4.94
112 | G48A G69U | 1.02
113 | A74G U109G | -4.6
114 | C11G G23A C76U | -6.14
115 | C73A C114G | -2.17
116 | G110C U129G | -5.19
117 | C13G G36A C40G | -4.55
118 | A41U A90C C124G | 0.559
119 | C53A C56A A90G C97A U132C | -3.46
120 | U59C C101A | -1.32

Row | Variant | polymerase ribozyme fitness (log ratio)
121 | C82A G120U | 0.156
122 | C13A U92C | -3.57
123 | C56A C80A U116G | -4.93
124 | C34A G60A C115U | -5.48
125 | G45U A83C G93U U116C C123G | -4.31
126 | C56G A68G | -3.1
127 | G42U C73A U106C | -1.97
128 | U9C G57U | 0.0681
129 | A5G A103C C104A | -3.08
130 | A41G U106A | -0.451
131 | G47U G60A G117A | -3.41
132 | U9C C53A C123G | 1.78
133 | C101A G107U U112G | -6.92
134 | C73U C82A C124G | 1.47
135 | C13G G17C | -4.94
136 | U33C G77C | -5.05
137 | G10A C13U U30G A46C C72U C123G | -6.25
138 | C34G A37U U55G C72G U92C C124A | -5.91
139 | C3U G19A C70U A111G G120U | -3.71
140 | U87A U106G | -1.35
141 | C8U C12A G61A C79U | 0.0887
142 | C15A C40A C102U C114G | -6.22
143 | C40U A43G G61A C97U | -3.06
144 | A29U A43C G44U C53G A111U U134A | -0.68

Row | Variant | polymerase ribozyme fitness (log ratio)
145 | C86U G107U | -5.23
146 | C15A U21A U78A G93U | -2.36
147 | C13G G71C A91U | -3.97
148 | C56A C115U | -1.67
149 | C20U A27C A84U C123A | -5.42
150 | A27U C62U A74G | -7.73
151 | A2U G113C | -3.73
152 | C40G U59A C72U G110C G117A A119C U129G U133G | -7.24
153 | C4G C114U | -3.57
154 | G36C C49G C102A U125A | -4.36
155 | C89A G93A | -2.99
156 | G10A C34A | -2.87
157 | G69U G93U | -1.01
158 | C8A U112C | 1.3
159 | C73A A100C A119U | -1.6
160 | C13U G58A C73U | -0.277
161 | C3U G39C G117U U133G | -4.12
162 | G42A G45U | -2.62
163 | C102U A121G | 0.0036
164 | C11G G17U G61A A105G | -6.42
165 | G39U G63U | -1.63
166 | U38A C89G C114A C123A U131G | -4.1
167 | A5C G35A A41U U112A | -5.8
